What was measured:
CtNbr1-FW-W763A = assay: SPR analysis of CtNbr1-FW-W763A with CtAms1 protein; assay type: binding, Chaetomium thermophilum; conditions: Biacore T200, 25 °C, GST-CtNbr1 FW W763A mutant captured on CM5 chip, about 200 RU, 10 mM HEPES, pH 7.4, 150 mM NaCl, 0.05% Tween 20, CtAms1 50 to 1.56 nM, performed once
From the text: (§1) Fig. 4 Mutational analysis of interactions between CtAms1 and CtNbr1-FW. a–c Pil1 co-tethering assay. CtNbr1 FW domain and its mutants were fused to Pil1-mCherry and co-expressed with CtAms1-mECitrine or its mutants in S. pombe. Cells were imaged by fluorescence microscopy. Bar, 3 μm. The data shown are representative of two independent experiments with similar results. Source data are provided as a Source Data file. d SPR analysis of the CtNbr1-CtAms1 interaction. GST-tagged CtNbr1 FW domain or its mutants was bound to a CM5 sensor chip. CtAms1 or CtAms1-G2A (twofold serial dilutions from 50 nM to 1.56 nM) flowed through the chip surface. The experiments were performed once. e SPR analysis of the interactions of CtNbr1 and hNBR1 with CtAms1 N-terminal peptides. GST-tagged CtNbr1 FW domain or hNBR1 FW domain was bound to a CM5 sensor chip. Chemically synthesized CtAms1 N-terminal peptides (twofold serial dilutions from 100 μM to 3.13 μM) flowed through the chip surface. […]
(§2) Wild-type and mutant forms of GST-CtNbr1(635–775) and wild-type GST-hNBR1(358-498) were purified from E. coli, and FLAG2-His6 (FFH)-tagged CtAms1 and CtAms1-G2A were purified from S. pombe. […] The dissociation constants (KD) were calculated by fitting the sensorgrams to a 1:1 binding model (for protein–protein interaction) or a steady-state model (for protein-peptide interaction) using Biacore T200 evaluation software.

CtNbr1-FW-D654E = assay: Pil1 co-tethering assay, CtAms1 and mutants with CtNbr1 FW domain D654E; assay type: cell-based, Chaetomium thermophilum; conditions: CtNbr1-FW-D654E fused to Pil1-mCherry, CtAms1-mECitrine or mutants, in S. pombe, 30 °C; two independent experiments
From the text: as §1
(§3) Fission yeast cells were grown to mid-log phase in EMM medium at 30 °C. […] Images were obtained with a 100 × 1.4NA objective and analyzed with the SoftWoRx software.
(§4) To examine a pair-wise protein-protein interaction, a bait protein was fused to Pil1-mCherry, and a prey protein was fused to mECitrine. Cells co-expressing both proteins were grown to mid-log phase in EMM medium at 30 °C for fluorescence microscopy. […]

S. pombe cells = assay: Localization / vacuolar entry of CtAms1-mCherry in S. pombe; assay type: cell-based, Schizosaccharomyces pombe
From the text: Fig. 5 CtNbr1 mediates vacuolar targeting of CtAms1 via conventional autophagy machinery in S. pombe. a CtNbr1 interacts with SpAtg8 in Pil1 co-tethering assay. SpAtg8(1−115), which lacks the G116 residue required for lipidation, was fused to Pil1-mCherry and co-expressed with mECitrine-tagged CtNbr1 in S. pombe. Pil1-mCherry served as a negative control. Cells were observed by fluorescence microscopy. Bar, 3 μm. b CtNbr1 can enter the vacuole through autophagy in nitrogen-starved S. pombe cells. CtNbr1-mCherry was expressed in wild-type and atg5Δ cells. SpCpy1-Venus was used as a vacuole lumen marker. Cells were collected before (0 h) and 8 h after nitrogen starvation (-N) and examined by fluorescence microscopy. […] C-terminally mCherry-tagged CtAms1, CtAms1-G2A, and CtAms1-G3A were individually co-expressed with untagged CtNbr1 in wild-type S. pombe cells. CtAms1-mCherry alone expressed in wild-type cells served as a negative control. CtAms1-mCherry was also co-expressed with untagged CtNbr1 in atg5Δ cells. Cells were collected before (0 h) and 3 h after nitrogen starvation and were examined by fluorescence microscopy. Bar, 3 μm. The data shown are representative of two independent experiments with similar results. Source data are provided as a Source Data file.
Plasmids expressing mECitrine- or mCherry-tagged CtNbr1 under the control of the P41nmt1 promoter and plasmids expressing mCherry-tagged CtAms1 under the control of the P41nmt1 promoter were constructed using modified stable integration vectors. Plasmids were linearized by NotI digestion and integrated at the ura4 or ade6 locus of the S. pombe genome.
Fission yeast cells were grown to mid-log phase in EMM medium at 30 °C. Microscopy was performed using the DeltaVision PersonalDV system (Applied Precision) equipped with a mCherry/YFP filter set (Chroma 89006 set) and a Photometrics Evolve 512 EMCCD camera. Images were obtained with a 100 × 1.4NA objective and analyzed with the SoftWoRx software.

CtNbr1 = assay: Pil1 co-tethering assay, candidate cargo proteins with CtNbr1; assay type: cell-based, Chaetomium thermophilum; conditions: Pil1-mCherry-CtNbr1 bait, mECitrine prey, co-expressed in S. pombe, EMM medium, 30 °C; fluorescence microscopy; two independent experiments
From the text: To investigate whether this receptor-cargo relationship is conserved in C. thermophilum, we examined whether CtNbr1 interacts with the Ct homologs of NVT cargo proteins using an imaging-based Pil1 co-tethering assay. In this assay, CtNbr1 was fused to the C-terminus of the Pil1-mCherry fusion protein, which localizes to distinctive filamentary structures. A cargo protein of interest was fused to the N-terminus of fluorescent protein mECitrine. The two proteins were co-expressed in S. pombe and if they interact with each other, co-localization on filamentary structures would be observed. […] To map which domain is responsible for binding CtAms1, a series of CtNbr1 fragments were analyzed (Fig. 1b).
Plasmids expressing proteins with mECitrine/mCherry/GFP tags under the control of Pnmt1 or P41nmt1 promoter were constructed using modified pDUAL vectors. […]
as §3, §4

CtNbr1-FW-D654A = assay: SPR analysis of CtNbr1-FW-D654A with CtAms1 protein; assay type: binding, Chaetomium thermophilum; conditions: Biacore T200, 25 °C, GST-CtNbr1 FW D654A mutant captured on CM5 chip, about 200 RU, 10 mM HEPES, pH 7.4, 150 mM NaCl, 0.05% Tween 20, CtAms1 50 to 1.56 nM, performed once
From the text: as §1, §2

CtNbr1-FW = assay: SPR analysis of CtNbr1-FW with CtAms1 protein; parameters: species or system Chaetomium thermophilum; conditions: Biacore T200, 25 °C, GST-CtNbr1(635–775) captured by anti-GST on CM5 chip, about 200 RU, 10 mM HEPES, pH 7.4, 150 mM NaCl, 0.05% Tween 20, CtAms1 protein 50 to 1.56 nM twofold dilutions, 1:1 binding model, performed once, read-out: dissociation constant (KD)
From the text: as §1, §2

B1: CtAms1: Chaetomium thermophilum α-mannosidase Ams1 (CTHT_0067100) (protein)
chain: MGGETFDVKGPRPNDYPLRAPKPVGQLISHIYKDRIAQFYNGGQYEHQNLRAMMKEDSVSGEPHVQLWVWHAPGQTRPSFEEAVSNQFVKTNVGEWFGPSWTTHWFRVVLTVPEHLQNKRLLEFHWDSNSEGLVWSEDGKPLQGLTGGGERVEWILPDSFRDGKEHTIYIEMACNRMFGNAPGGDSIQPPDPNKYFRLDKAEIVAIDPDARQLWIDIWILQDAAREFPGDSWESHKALQVCNEIIEAFELGNRESLKKCRKIAEQYLGPNVDSPNVYNSGKEPLVYAIGHCHIDSCWLWPFAETKRKVVRSWSSQCDLMDRYPELNFVCSQAQQYKWLKQLYPYAFERVKKKVAEGRFHPIGGSWVEHDTNMPSGESLVRQFLYGQRFYESNFGKRCKTFWLPDTFGYSAQLPQLCRLAGMTRFLTQKLSWNNINRFPHTTFNWVALDGSQVICHMPPSETYTAEAHFGDVKRSMSQHKSLDQDNTSLLVFGKGDGGGGPTWVQIEKLRRCRGISDTVGLLPRVHMGSSVDDFFDRLERKADTFVTWYGELYFELHRGTYTTQAKNKKNNRRAEAKLRDLELLATIASVQDKSYKYPKEEFDAMWENVLLCQFHDCLPGSSIEMAYRESDQMYADVFSTAEKIMKGVSQVLGLEPALNHMSTTNTVALNTLPWPRRELVKISEKEAAVAHGTGPFLKLQKLETTKPLVTLRQVTKGAFVLENSQLRVHVEKGVITSLYDKQANREVIPKGQKANQYVIFDDKPLYWQAWDVEVYHLDTRKELPSGETEVHENTPHRVSVVTRTKVSDKSHIQTIIALNGAVEGEQSWVEVQSKVDWHETMKFLKVEFPVDVRNTEASYETAFGIVRRPTHYNTSWDMAKFEVCAHRWADLSEYGYGVSILNDSKYGFATAGQTMRLSLLRSPKAPDAHADMGTHHIRWAILPHQGSLSHVTIRKAFEFNNPTKLYSSPDAAALVAAPPPVWLTPDSSPAIVLDTVKRGEDDEDVSRGELPARKGQSVILRMYDSLGGLARGTVVTTWPLKKVCKVNLLEDDLEVVPWENGRFTVELRPFEVASYRLVLA
**Q.** Which “dissociation constant (KD)” value (CtNbr1-FW-W763A) does the source give for B1 here?
**A.** The value was “No binding”.

**Q.** What about the “binding to D654E mutant of CtNbr1 FW domain” value (CtNbr1-FW-D654E) of the same molecule?
**A.** Its value is “bound”.

**Q.** What about the “localization of CtAms1 expressed alone” value (S. pombe cells; no CtNbr1, nutrient-rich and nitrogen starvation (3 h), wild-type S. pombe, CtAms1-mCherry) of the same molecule?
**A.** Its value is “diffuse cytoplasmic distribution”.

**Q.** What about the CtNbr1-dependent vacuolar entry (S. pombe cells; untagged CtNbr1 co-expressed, 3 h nitrogen starvation, atg5Δ S. pombe) of the same molecule?
**A.** Its CtNbr1-dependent vacuolar entry is “abolished”.

**Q.** And the “vacuolar entry on co-expression of CtNbr1” value (S. pombe cells; untagged CtNbr1 co-expressed, 3 h nitrogen starvation, wild-type S. pombe)?
**A.** The value was “vacuolar entry”.

**Q.** And the “cell periphery accumulation on co-expression of CtNbr1” value (S. pombe cells; untagged CtNbr1 co-expressed, nutrient-rich conditions (0 h), wild-type S. pombe)?
**A.** Its value is “cell periphery accumulation”.

**Q.** What about the “interaction with CtNbr1” value (CtNbr1) of the same molecule?
**A.** The value was “interacted”.

**Q.** What about the “dissociation constant (KD)” value (CtNbr1-FW-D654A) of the same molecule?
**A.** The value was “No binding”.

**Q.** And the Kd (CtNbr1-FW)?
**A.** The Kd was 3.4 nM.

Reference: PMC9233695, “Structural mechanism of protein recognition by the FW domain of autophagy receptor Nbr1” (Nature Communications, 2022)
